# Measurements: publication doi:10.1101/2025.10.04.680452 (bioRxiv, 2025)
# Several values for one entry are separate records, joined by “and”; a condition that tells them apart may be missing. Equal entries are not always repeated.
# B1: human mitochondrial group I chaperonin mHsp60, wild type (natural protein)
# chain: GSAKDVKFGADARALMLQGVDLLADAVAVTMGPKGRTVIIEQSWGSPKVTKDGVTVAKSIDLKDKYKNIGAKLVQDVANNTNEEAGDGTTTATVLARSIAKEGFEKISKGANPVEIRRGVMLAVDAVIAELKKQSKPVTTPEEIAQVATISANGDKEIGNIISDAMKKVGRKGVITVKDGKTLNDELEIIEGMKFDRGYISPYFINTSKGQKCEFQDAYVLLSEKKISSIQSIVPALEIANAHRKPLVIIAEDVDGEALSTLVLNRLKVGLQVVAVKAPGFGDNRKNQLKDMAIATGGAVFGEEGLTLNLEDVQPHDLGKVGEVIVTKDDAMLLKGKGDKAQIEKRIQEIIEQLDVTTSEYEKEKLNERLAKLSDGVAVLKVGGTSDVEVNEKKDRVTDALNATRAAVEEGIVLGGGCALLRCIPALDSLTPANEDQKIGIEIIKRTLKIPAMTIAKNAGVEGSLIVEKIMQSSSEVGYDAMAGDFVNMVEKGIIDPTKVVRTALLDAAGVASLLTTAEVVVTEIPKEEKDPGMGAMGGMGGGMGGGMF
# Molecular target: the molecule itself
# Test: cryo-EM structure
protein,measurement,value
B1,stoichiometry N,7 and 14
